Test results from patent US20150344570A1 (published 2015).

T1: FcγRIIa R (extracellular domain, His tag at the C terminus) (human, UniProt P12318 34-217)
T1 construct: extracellular domain; Soluble analyte in Biacore; also called FcgRIIa R type; 2aR
T1 sequence (looked up): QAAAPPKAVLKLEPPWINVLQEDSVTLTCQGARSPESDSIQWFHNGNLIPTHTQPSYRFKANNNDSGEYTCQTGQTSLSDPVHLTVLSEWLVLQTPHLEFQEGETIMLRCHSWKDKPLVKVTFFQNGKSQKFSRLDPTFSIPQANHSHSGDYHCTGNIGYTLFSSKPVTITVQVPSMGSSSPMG

B1: GpH7-B3 variant P238_08L/GpL16-k0 (antibody, human IgG1, kappa)
heavy: not shown
light: DIVMTQSPLSLPVTPGEPASISCQASESLVHSNRNTYLHWYLQKPGQSPQLLIYKVSNRFSGVPDRFSGSGSGTDFTLKISRVEAEDVGVYYCSQNTHVPPTFGQGTKVEIERTVAAPSVFIFPPSDEQLKSGTASVVCLLNNFYPREAKVQWKVDNALQSGNSQESVTEQDSKDSTYSLSSTLTLSKADYEKHKVYACEVTHQGLSSPVTKSFNRGEC
notes: homodimerized; also called Ho Ab
B2: GpH7-A5/GpH7-B3 variant T335_15Y/GpL16-k0 (antibody, human IgG1, kappa)
heavy 1: not shown
heavy 2: not shown
light: B1 light
notes: heterodimerized; also called He Ab
B3: GpH7-A5/GpH7-B3 variant L328_04F/GpL16-k0 (antibody, human IgG1, kappa)
heavy 1: not shown
heavy 2: not shown
light: B1 light
notes: as for B2
B4: GpH7-A5/GpH7-B3 variant H268_13S/GpL16-k0 (antibody, human IgG1, kappa)
heavy 1: not shown
heavy 2: not shown
light: B1 light
notes: as for B2
B5: GpH7-B3 variant T335_09D/GpL16-k0 (antibody, human IgG1, kappa)
heavy: not shown
light: B1 light
notes: as for B1
B6: GpH7-A5/GpH7-B3 variant K334_18N/GpL16-k0 (antibody, human IgG1, kappa)
heavy 1: not shown
heavy 2: not shown
light: B1 light
notes: as for B2
B7: GpH7-A5/GpH7-B3 variant I332_10E/GpL16-k0 (antibody, human IgG1, kappa)
heavy 1: not shown
heavy 2: not shown
light: B1 light
notes: as for B2
B8: GpH7-B3 variant T335_20W/GpL16-k0 (antibody, human IgG1, kappa)
heavy: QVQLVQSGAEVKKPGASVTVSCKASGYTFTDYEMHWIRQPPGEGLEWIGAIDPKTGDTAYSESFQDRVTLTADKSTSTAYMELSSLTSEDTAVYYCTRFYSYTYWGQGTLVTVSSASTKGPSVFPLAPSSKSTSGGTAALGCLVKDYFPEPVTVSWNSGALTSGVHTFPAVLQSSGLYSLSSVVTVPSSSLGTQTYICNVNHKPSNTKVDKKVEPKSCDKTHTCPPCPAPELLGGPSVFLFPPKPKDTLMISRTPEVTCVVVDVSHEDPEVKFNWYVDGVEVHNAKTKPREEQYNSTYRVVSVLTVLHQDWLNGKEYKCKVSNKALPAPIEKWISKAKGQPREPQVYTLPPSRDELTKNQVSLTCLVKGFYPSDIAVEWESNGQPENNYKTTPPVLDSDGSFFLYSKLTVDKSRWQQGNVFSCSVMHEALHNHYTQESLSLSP
light: B1 light
notes: as for B1
B9: GpH7-A5/GpH7-B3 variant G236_10E/GpL16-k0 (antibody, human IgG1, kappa)
heavy 1: not shown
heavy 2: not shown
light: B1 light
notes: as for B2
B10: GpH7-B3 variant P271_01G/GpL16-k0 (antibody, human IgG1, kappa)
heavy: not shown
light: B1 light
notes: as for B1
B11: GpH7-A5/GpH7-B3 variant I332_15Y/GpL16-k0 (antibody, human IgG1, kappa)
heavy 1: not shown
heavy 2: not shown
light: B1 light
notes: as for B2
B12: GpH7-B3 variant T335_18N/GpL16-k0 (antibody, human IgG1, kappa)
heavy: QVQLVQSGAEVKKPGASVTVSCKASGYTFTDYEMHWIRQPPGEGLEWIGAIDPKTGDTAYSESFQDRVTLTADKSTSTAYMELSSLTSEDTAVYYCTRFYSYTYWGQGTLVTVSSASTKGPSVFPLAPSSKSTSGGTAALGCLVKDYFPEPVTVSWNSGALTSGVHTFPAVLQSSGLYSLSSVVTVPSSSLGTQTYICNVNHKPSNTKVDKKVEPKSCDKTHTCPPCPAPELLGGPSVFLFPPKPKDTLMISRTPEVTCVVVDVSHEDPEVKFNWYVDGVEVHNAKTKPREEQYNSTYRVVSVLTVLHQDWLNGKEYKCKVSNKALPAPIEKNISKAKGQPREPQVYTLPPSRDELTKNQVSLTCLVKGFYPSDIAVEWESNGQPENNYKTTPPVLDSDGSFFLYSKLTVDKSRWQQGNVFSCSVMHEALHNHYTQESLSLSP
light: B1 light
notes: as for B1
B13: GpH7-B3 variant T335_16H/GpL16-k0 (antibody, human IgG1, kappa)
heavy: not shown
light: B1 light
notes: as for B1
B14: GpH7-A5/GpH7-B3 variant K326_10E/GpL16-k0 (antibody, human IgG1, kappa)
heavy 1: not shown
heavy 2: not shown
light: B1 light
notes: as for B2
B15: GpH7-A5/GpH7-B3 variant K334_07I/GpL16-k0 (antibody, human IgG1, kappa)
heavy 1: not shown
heavy 2: not shown
light: B1 light
notes: as for B2
B16: GpH7-B3 variant T335_19Q/GpL16-k0 (antibody, human IgG1, kappa)
heavy: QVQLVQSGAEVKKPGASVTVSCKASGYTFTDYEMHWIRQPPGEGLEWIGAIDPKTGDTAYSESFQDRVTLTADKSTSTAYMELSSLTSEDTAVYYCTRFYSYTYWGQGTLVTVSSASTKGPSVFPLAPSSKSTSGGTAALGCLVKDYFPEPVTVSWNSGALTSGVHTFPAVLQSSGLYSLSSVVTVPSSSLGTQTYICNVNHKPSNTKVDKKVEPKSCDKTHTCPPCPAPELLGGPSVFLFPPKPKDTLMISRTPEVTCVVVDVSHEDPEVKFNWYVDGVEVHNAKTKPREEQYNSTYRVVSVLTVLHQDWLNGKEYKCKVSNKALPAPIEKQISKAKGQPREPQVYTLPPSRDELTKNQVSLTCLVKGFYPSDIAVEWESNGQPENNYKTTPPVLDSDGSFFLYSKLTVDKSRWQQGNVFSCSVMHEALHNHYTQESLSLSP
light: B1 light
notes: as for B1
B17: GpH7-A5/GpH7-B3 variant K326_14T/GpL16-k0 (antibody, human IgG1, kappa)
heavy 1: not shown
heavy 2: not shown
light: B1 light
notes: as for B2
B18: GpH7-B3 variant S267_02A/GpL16-k0 (antibody, human IgG1, kappa)
heavy: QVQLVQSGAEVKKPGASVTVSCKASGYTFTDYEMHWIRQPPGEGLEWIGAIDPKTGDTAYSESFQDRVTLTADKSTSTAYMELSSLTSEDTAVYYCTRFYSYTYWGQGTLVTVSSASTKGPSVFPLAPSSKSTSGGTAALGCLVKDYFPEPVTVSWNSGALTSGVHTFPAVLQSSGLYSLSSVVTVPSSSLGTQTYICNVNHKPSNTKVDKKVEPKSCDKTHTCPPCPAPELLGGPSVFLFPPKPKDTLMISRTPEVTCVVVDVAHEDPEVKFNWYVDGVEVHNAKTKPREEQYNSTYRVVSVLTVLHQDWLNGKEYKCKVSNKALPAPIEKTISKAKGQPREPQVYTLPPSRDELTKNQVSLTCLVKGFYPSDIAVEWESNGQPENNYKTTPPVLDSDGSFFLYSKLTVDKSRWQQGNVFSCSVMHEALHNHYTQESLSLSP
light: B1 light
notes: as for B1
B19: GpH7-A5/GpH7-B3 variant K334_03V/GpL16-k0 (antibody, human IgG1, kappa)
heavy 1: not shown
heavy 2: not shown
light: B1 light
notes: as for B2
B20: GpH7-B3 variant S239_09D/GpL16-k0 (antibody, human IgG1, kappa)
heavy: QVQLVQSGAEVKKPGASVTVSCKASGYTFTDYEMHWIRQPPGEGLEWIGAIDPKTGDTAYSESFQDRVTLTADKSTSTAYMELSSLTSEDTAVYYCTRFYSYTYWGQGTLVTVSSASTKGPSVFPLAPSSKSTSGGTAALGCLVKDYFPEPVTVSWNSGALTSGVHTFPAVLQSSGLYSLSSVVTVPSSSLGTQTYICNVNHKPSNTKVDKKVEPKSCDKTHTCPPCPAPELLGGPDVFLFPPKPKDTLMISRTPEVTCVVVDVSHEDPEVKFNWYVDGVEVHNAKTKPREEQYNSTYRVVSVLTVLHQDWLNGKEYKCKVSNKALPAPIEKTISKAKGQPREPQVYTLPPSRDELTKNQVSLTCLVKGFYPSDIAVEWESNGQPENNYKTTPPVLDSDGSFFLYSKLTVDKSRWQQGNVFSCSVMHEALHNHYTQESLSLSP
light: B1 light
notes: as for B1
B21: GpH7-A5/GpH7-B3 variant K334_16H/GpL16-k0 (antibody, human IgG1, kappa)
heavy 1: not shown
heavy 2: not shown
light: B1 light
notes: as for B2
B22: GpH7-A5/GpH7-B3 variant K334_15Y/GpL16-k0 (antibody, human IgG1, kappa)
heavy 1: not shown
heavy 2: not shown
light: B1 light
notes: as for B2
B23: GpH7-B3 variant S267_07I/GpL16-k0 (antibody, human IgG1, kappa)
heavy: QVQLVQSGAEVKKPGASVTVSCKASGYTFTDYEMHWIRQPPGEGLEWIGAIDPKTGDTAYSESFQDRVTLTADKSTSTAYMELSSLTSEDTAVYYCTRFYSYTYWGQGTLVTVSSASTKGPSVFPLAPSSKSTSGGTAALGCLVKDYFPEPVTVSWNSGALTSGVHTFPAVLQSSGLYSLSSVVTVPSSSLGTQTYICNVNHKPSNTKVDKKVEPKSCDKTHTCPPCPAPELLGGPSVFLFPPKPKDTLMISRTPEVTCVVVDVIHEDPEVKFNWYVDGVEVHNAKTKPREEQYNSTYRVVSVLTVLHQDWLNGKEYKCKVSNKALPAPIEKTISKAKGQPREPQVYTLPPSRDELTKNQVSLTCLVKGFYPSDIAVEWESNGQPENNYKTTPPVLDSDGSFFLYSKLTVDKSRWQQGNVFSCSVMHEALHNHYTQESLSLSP
light: B1 light
notes: as for B1
B24: GpH7-B3 variant S267_01G/GpL16-k0 (antibody, human IgG1, kappa)
heavy: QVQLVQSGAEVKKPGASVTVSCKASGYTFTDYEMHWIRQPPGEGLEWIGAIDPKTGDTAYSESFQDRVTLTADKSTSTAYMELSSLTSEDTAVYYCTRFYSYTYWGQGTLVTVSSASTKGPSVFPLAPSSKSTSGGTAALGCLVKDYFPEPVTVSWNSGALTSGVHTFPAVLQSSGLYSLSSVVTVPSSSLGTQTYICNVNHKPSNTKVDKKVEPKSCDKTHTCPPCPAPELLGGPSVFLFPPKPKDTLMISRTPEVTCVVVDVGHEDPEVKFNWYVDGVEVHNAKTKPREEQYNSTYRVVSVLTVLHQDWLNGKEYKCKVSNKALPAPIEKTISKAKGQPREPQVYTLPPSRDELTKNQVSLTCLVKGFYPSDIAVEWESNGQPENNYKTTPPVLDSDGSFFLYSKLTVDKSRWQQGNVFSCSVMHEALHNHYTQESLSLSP
light: B1 light
notes: as for B1
B25: GpH7-A5/GpH7-B3 variant L328_03V/GpL16-k0 (antibody, human IgG1, kappa)
heavy 1: not shown
heavy 2: not shown
light: B1 light
notes: as for B2
B26: GpH7-B3 variant S239_01G/GpL16-k0 (antibody, human IgG1, kappa)
heavy: not shown
light: B1 light
notes: as for B1
B27: GpH7-B3 variant T335_04F/GpL16-k0 (antibody, human IgG1, kappa)
heavy: not shown
light: B1 light
notes: as for B1
B28: GpH7-A5/GpH7-B3 variant I332_09D/GpL16-k0 (antibody, human IgG1, kappa)
heavy 1: not shown
heavy 2: not shown
light: B1 light
notes: as for B2
B29: GpH7-A5/GpH7-B3 variant K326_16H/GpL16-k0 (antibody, human IgG1, kappa)
heavy 1: not shown
heavy 2: not shown
light: B1 light
notes: as for B2
B30: GpH7-B3 variant S337_14T/GpL16-k0 (antibody, human IgG1, kappa)
heavy: not shown
light: B1 light
notes: as for B1
B31: GpH7-A5/GpH7-B3 variant K334_14T/GpL16-k0 (antibody, human IgG1, kappa)
heavy 1: not shown
heavy 2: not shown
light: B1 light
notes: as for B2
B32: GpH7-A5/GpH7-B3 variant I332_04F/GpL16-k0 (antibody, human IgG1, kappa)
heavy 1: not shown
heavy 2: not shown
light: B1 light
notes: as for B2
B33: GpH7-B3 variant T335_06M/GpL16-k0 (antibody, human IgG1, kappa)
heavy: not shown
light: B1 light
notes: as for B1
B34: GpH7-B3 variant T335_08L/GpL16-k0 (antibody, human IgG1, kappa)
heavy: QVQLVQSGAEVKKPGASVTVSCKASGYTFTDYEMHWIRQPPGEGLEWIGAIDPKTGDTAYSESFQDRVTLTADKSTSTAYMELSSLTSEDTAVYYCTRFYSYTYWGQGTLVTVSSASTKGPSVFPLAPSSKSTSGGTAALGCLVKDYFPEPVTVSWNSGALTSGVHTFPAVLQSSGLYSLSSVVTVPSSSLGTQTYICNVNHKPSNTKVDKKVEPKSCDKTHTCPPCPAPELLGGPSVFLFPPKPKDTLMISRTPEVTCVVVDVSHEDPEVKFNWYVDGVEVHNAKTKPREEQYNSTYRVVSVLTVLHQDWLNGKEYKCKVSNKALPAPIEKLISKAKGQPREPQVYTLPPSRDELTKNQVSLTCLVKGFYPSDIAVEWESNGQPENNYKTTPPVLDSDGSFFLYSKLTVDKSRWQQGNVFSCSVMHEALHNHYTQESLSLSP
light: B1 light
notes: as for B1
B35: GpH7-A5/GpH7-B3 variant K326_09D/GpL16-k0 (antibody, human IgG1, kappa)
heavy 1: not shown
heavy 2: not shown
light: B1 light
notes: as for B2
B36: GpH7-B3 variant Y296_20W/GpL16-k0 (antibody, human IgG1, kappa)
heavy: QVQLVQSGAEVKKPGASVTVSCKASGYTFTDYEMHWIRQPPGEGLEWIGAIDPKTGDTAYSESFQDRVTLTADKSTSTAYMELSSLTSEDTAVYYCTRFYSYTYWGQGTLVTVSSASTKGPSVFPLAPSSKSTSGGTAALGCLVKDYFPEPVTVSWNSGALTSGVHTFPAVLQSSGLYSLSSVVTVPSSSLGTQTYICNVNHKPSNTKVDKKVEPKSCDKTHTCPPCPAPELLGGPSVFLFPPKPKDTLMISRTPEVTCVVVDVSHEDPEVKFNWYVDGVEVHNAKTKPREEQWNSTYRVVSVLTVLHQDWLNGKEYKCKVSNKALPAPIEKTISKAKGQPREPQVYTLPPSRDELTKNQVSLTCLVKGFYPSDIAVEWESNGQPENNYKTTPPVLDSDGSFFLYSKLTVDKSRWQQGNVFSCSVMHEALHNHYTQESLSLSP
light: B1 light
notes: as for B1
B37: GpH7-A5/GpH7-B3 variant G236_09D/GpL16-k0 (antibody, human IgG1, kappa)
heavy 1: not shown
heavy 2: not shown
light: B1 light
notes: as for B2
B38: GpH7-A5/GpH7-B3 variant H268_10E/GpL16-k0 (antibody, human IgG1, kappa)
heavy 1: not shown
heavy 2: not shown
light: B1 light
notes: as for B2
B39: GpH7-A5/GpH7-B3 variant H268_09D/GpL16-k0 (antibody, human IgG1, kappa)
heavy 1: not shown
heavy 2: not shown
light: B1 light
notes: as for B2
B40: GpH7-B3 variant Y300_04F/GpL16-k0 (antibody, human IgG1, kappa)
heavy: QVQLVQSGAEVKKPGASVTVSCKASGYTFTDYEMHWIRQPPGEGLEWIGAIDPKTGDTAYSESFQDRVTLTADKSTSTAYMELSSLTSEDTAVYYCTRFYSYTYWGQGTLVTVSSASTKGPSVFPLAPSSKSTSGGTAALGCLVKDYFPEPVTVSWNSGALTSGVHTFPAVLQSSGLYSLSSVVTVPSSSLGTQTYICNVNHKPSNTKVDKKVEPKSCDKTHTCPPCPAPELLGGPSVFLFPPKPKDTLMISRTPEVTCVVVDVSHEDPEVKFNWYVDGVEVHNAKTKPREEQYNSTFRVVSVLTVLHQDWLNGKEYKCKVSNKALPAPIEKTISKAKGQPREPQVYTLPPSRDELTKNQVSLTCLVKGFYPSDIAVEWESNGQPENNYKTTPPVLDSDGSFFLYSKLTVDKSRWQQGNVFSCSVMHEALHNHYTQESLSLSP
light: B1 light
notes: as for B1
B41: GpH7-A5/GpH7-B3 variant K326_19Q/GpL16-k0 (antibody, human IgG1, kappa)
heavy 1: not shown
heavy 2: not shown
light: B1 light
notes: as for B2
B42: GpH7-A5/GpH7-B3 variant H268_18N/GpL16-k0 (antibody, human IgG1, kappa)
heavy 1: not shown
heavy 2: not shown
light: B1 light
notes: as for B2
B43: GpH7-B3 variant V266_06M/GpL16-k0 (antibody, human IgG1, kappa)
heavy: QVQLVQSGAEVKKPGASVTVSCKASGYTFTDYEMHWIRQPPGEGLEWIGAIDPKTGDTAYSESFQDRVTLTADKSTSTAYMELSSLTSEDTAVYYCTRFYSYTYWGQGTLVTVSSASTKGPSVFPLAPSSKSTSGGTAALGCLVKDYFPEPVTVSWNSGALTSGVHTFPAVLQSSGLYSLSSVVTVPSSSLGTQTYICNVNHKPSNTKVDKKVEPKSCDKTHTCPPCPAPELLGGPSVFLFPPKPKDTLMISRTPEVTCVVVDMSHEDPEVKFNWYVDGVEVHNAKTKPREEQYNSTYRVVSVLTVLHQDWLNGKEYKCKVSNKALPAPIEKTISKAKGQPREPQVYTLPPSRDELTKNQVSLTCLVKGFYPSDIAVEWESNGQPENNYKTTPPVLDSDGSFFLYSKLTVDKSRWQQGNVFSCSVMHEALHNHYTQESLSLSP
light: B1 light
notes: as for B1
B44: GpH7-A5/GpH7-B3 variant K326_06M/GpL16-k0 (antibody, human IgG1, kappa)
heavy 1: not shown
heavy 2: not shown
light: B1 light
notes: as for B2

How the values were obtained:
[1] = target: T1, FcγRIIa R (extracellular domain, His …); assay: SPR (Biacore), relative binding, control GpH7-B3/GpL16-k0 = 100
Procedure: (§1) Analysis of interaction between objective antibody and the FcγR was carried out using Biacore T100 (GE Healthcare). HBS-EP+ (GE Healthcare) was used as the running buffer, and the measurement temperature was set to 25° C. Chips produced by immobilizing the antigen peptide by the amine coupling method to a Series S Sencor Chip CM5 (GE Healthcare), or alternatively, chips produced by allowing preliminarily biotinylated antigen peptides to interact with and immobilize onto a Series S Sensor Chip SA (certified) (GE Healthcare) were used. Antibodies of interest were captured onto an antigen peptide-immobilized chip, and allowed to interact to each FcγR diluted with running buffer. To regenerate and repeatedly use the chip, the antibodies captured on the chip were washed off by reacting 10 mM glycine-HCl, pH 1.5.

[2] = target: T1, FcγRIIa R (extracellular domain, His …); assay: SPR (Biacore), relative binding, control GpH7-A5/GpH7-B3/GpL16-k0 = 100
Procedure: as §1

Binder | Ho/Con_2aR [1] | He/Con_2aR [2]
B1 | 148 % of control | –
B2 | – | 111 % of control
B3 | – | 138 % of control
B4 | – | 127 % of control
B5 | 113 % of control | –
B6 | – | 112 % of control
B7 | – | 114 % of control
B8 | 101 % of control | –
B9 | – | 125 % of control
B10 | 150 % of control | –
B11 | – | 110 % of control
B12 | 100 % of control | –
B13 | 102 % of control | –
B14 | – | 148 % of control
B15 | – | 114 % of control
B16 | 102 % of control | –
B17 | – | 134 % of control
B18 | 160 % of control | –
B19 | – | 117 % of control
B20 | 142 % of control | –
B21 | – | 109 % of control
B22 | – | 108 % of control

Binder | Ho/Con_2aR [1] | He/Con_2aR [2]
B23 | 113 % of control | –
B24 | 116 % of control | –
B25 | – | 116 % of control
B26 | 132 % of control | –
B27 | 108 % of control | –
B28 | – | 119 % of control
B29 | – | 120 % of control
B30 | 110 % of control | –
B31 | – | 112 % of control
B32 | – | 105 % of control
B33 | 107 % of control | –
B34 | 108 % of control | –
B35 | – | 148 % of control
B36 | 107 % of control | –
B37 | – | 106 % of control
B38 | – | 148 % of control
B39 | – | 149 % of control
B40 | 109 % of control | –
B41 | – | 129 % of control
B42 | – | 128 % of control
B43 | 146 % of control | –
B44 | – | 138 % of control
